Assay results taken from publication PMC6956814, “Deubiquitinase USP28 inhibits ubiquitin ligase KLHL2-mediated uridine-cytidine kinase 1 degradation and confers sensitivity to 5'-azacytidine-resistant human leukemia cells” (Theranostics, 2020).

Molecular target: T1, His-tagged KLHL2 protein (human, UniProt O95198 1-593)
T1 construct: Kelch Like Family Member 2 (KLHL2), human; source: recombinant
T1 sequence (looked up): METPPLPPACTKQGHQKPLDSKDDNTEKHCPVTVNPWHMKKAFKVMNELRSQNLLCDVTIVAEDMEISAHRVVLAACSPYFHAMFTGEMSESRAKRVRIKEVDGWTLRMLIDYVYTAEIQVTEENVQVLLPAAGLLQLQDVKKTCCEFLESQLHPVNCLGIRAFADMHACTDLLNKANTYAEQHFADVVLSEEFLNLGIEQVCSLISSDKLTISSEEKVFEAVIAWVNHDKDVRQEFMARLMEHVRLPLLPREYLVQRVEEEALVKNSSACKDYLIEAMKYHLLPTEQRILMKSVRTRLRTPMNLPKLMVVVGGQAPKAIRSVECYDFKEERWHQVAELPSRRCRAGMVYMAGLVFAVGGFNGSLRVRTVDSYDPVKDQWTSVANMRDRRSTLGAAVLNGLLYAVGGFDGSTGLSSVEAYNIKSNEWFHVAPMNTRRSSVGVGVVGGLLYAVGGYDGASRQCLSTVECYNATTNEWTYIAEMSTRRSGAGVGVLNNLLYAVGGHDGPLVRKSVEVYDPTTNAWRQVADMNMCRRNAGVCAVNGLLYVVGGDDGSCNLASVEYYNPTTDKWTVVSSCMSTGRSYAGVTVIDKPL
Assay: pull-down; recombinant GST-UCK1 protein incubated with His-tagged KLHL2 protein; GST pull-down
Conditions: both partners purified

binding result: binds
B1: Recombinant GST-UCK1 protein (enzyme, human, UniProt Q9HA47 1-277, looked up)
chain: MASAGGEDCESPAPEADRPHQRPFLIGVSGGTASGKSTVCEKIMELLGQNEVEQRQRKVVILSQDRFYKVLTAEQKAKALKGQYNFDHPDAFDNDLMHRTLKNIVEGKTVEVPTYDFVTHSRLPETTVVYPADVVLFEGILVFYSQEIRDMFHLRLFVDTDSDVRLSRRVLRDVRRGRDLEQILTQYTTFVKPAFEEFCLPTKKYADVIIPRGVDNMVAINLIVQHIQDILNGDICKWHRGGSNGRSYKRTFSEPGDHPGMLTSGKRSHLESSSRPH
notes: uridine-cytidine kinase 1 (UCK1), human; source: recombinant
